# Experimental data from patent US20030224500A1, “Modified MEK1 and MEK2, crystal of a peptide: ligand: cofactor complex containing such modified MEK1 or MEK2, and methods of use thereof” (priority 2001, published 2003).
# T1: glutathione-S-transferase fusion protein of kinase-inactive ERK1 (GSTERK1K71R), P27361
# T1 chain: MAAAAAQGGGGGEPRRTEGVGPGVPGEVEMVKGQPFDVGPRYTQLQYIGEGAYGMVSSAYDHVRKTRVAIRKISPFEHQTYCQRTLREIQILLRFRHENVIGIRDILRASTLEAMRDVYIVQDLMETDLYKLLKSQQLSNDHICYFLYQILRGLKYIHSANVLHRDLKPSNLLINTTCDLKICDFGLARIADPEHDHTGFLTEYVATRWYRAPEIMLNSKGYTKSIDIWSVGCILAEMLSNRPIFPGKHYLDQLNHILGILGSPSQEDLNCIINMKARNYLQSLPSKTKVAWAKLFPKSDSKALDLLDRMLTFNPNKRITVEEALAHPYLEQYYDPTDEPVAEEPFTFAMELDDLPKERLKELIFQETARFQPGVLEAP
# B1: MEK1 (wt)(d280-323) (protein)
# chain: MPKKKPTPIQLNPAPDGSAVNGTSSAETNLEALQKKLEELELDEQQRKRLEAFLTQKQKVGELKDDDFEKISELGAGNGGVVFKVSHKPSGLVMARKLIHLEIKPAIRNQIIRELQVLHECNSPYIVGFYGAFYSDGEISICMEHMDGGSLDQVLKKAGRIPEQILGKVSIAVIKGLTYLREKHKIMHRDVKPSNILVNSRGEIKLCDFGVSGQLIDSMANSFVGTRSYMSPERLQGTHYSVQSDIWSMGLSLVEMAVGRYPIPPPDAKELELMFGCQVKLPSGVFSLEFQDFVNKCLIKNPAERADLKQLMVHAFIKRSDAEEVDFAGWLCSTIGLNQPSTPTHAAGV
# B2: MEK1-C1 (d280-323) (protein)
# chain: EAFLTQKQKVGELKDDDFEKISELGAGNGGVVFKVSHKPSGLVMARKLIHLEIKPAIRNQIIRELQVLHECNSPYIVGFYGAFYSDGEISICMEHMDGGSLDQVLKKAGRIPEQILGKVSIAVIKGLTYLREKHKIMHRDVKPSNILVNSRGEIKLCDFGVSGQLIDSMANSFVGTRSYMSPERLQGTHYSVQSDIWSMGLSLVEMAVGRYPIPPPDAKELELMFGCQVKLPSGVFSLEFQDFVNKCLIKNPAERADLKQLMVHAFIKRSDAEEVDFAGWLCSTIGLNQPSTPTHAAGV
# B3: MEK1-C3 (d280-323) (protein)
# chain: LDEQQRKRLEAFLTQKQKVGELKDDDFEKISELGAGNGGVVFKVSHKPSGLVMARKLIHLEIKPAIRNQIIRELQVLHECNSPYIVGFYGAFYSDGEISICMEHMDGGSLDQVLKKAGRIPEQILGKVSIAVIKGLTYLREKHKIMHRDVKPSNILVNSRGEIKLCDFGVSGQLIDSMANSFVGTRSYMSPERLQGTHYSVQSDIWSMGLSLVEMAVGRYPIPPPDAKELELMFGCQVKLPSGVFSLEFQDFVNKCLIKNPAERADLKQLMVHAFIKRSDAEEVDFAGWLCSTIGLNQPSTPTHAAGV
# B4: MEK1-C2 (d280-323) (protein)
# chain: ELKDDDFEKISELGAGNGGVVFKVSHKPSGLVMARKLIHLEIKPAIRNQIIRELQVLHECNSPYIVGFYGAFYSDGEISICMEHMDGGSLDQVLKKAGRIPEQILGKVSIAVIKGLTYLREKHKIMHRDVKPSNILVNSRGEIKLCDFGVSGQLIDSMANSFVGTRSYMSPERLQGTHYSVQSDIWSMGLSLVEMAVGRYPIPPPDAKELELMFGCQVKLPSGVFSLEFQDFVNKCLIKNPAERADLKQLMVHAFIKRSDAEEVDFAGWLCSTIGLNQPSTPTHAAGV
# Legend:
# [1] = test system: glutathione-S-transferase fusion protein of kinase-inactive ERK1 (GSTERK1K71R); assay: Kinase activity of the modified MEK1 peptides, GSTERK1K71R substrate, [γ-32P]ATP; format: biochemical; settings: after Raf activation; 50 ng modified MEK peptide, 10 μM ATP, room temperature 20 minutes; initial experiments
# Experimental: The modified MEK peptides (50 ng) were assayed in 20 mM HEPES (N-2-hydroxyethyl-piperazine-N′-2-ethanesulfonic acid) pH 7.5, 10 mM MgCl2, […] (ethylene glycol bis(2-aminoethyl ether)-N,N,N′N′-tetraacetic acid), 10 μM ATP, with 5 μCi [γ-^32P] ATP. Appropriate samples had 0.5 units of Raf-1 (UBI) added, and the reaction started with the addition of 1 μg GSTERK1 (K71R). The reactions were incubated at room temperature for 20 minutes, then quenched with 5 μl 6×Laemmli sample buffer. The samples were then resolved by SDS-PAGE, and the phosphoproteins visualized by autoradiography. Radiolabel incorporated into ERK was quantitated by excision of the protein band from the gel and counting in a standard scintillation counter. Initial experiments with the modified MEK1 s generated the following specific activities in units of pmol PO4 min-1 mg-1 after Raf activation: WT: 8380.6, WTsPR: 40.1, C1FL: 773.3, ClsPR: 35.9, C2FL: 537.5, C2sPR: 24.1, C3FL: 441.7 and C3sPR: 26.9.
# [2] = test system: colon carcinomas of both mouse and human origin; settings: cited from earlier work
# MAPK = settings: correlated with efficacy; cited from earlier work
# [3] = molecular target: T1, glutathione-S-transferase fusion …
molecule,measurement,setting,value
"WT: Wild-type human MEK1, full-length peptide of SEQ ID NO: 2, expressed in E. coli",specific activities,[1],8380.6 pmol PO4 min-1 mg-1
"O=C(NOCC1CC1)c1ccc(F)c(F)c1Nc1ccc(I)cc1Cl [2-(2-chloro-4-iodo-phenylamino)-N-cyclopropylmethoxy-3,4-difluoro-benzamide]",tumor growth inhibited,"[2]; mice with colon carcinomas of both mouse and human origin, after treatment with inhibitor",≤ 80%
same,toxicity,"[2]; wide range of doses, mice",no signs of toxicity
same,levels of MAPK in excised tumors,MAPK,reduction in levels of MAPK
C2FL: NH2-terminally truncated MEK1 having peptide of amino acid residues 62 to 393 of SEQ ID NO: 2,specific activities,[1],537.5 pmol PO4 min-1 mg-1
C3FL: NH2-terminally truncated MEK1 having peptide of amino acid residues 42 to 393 of SEQ ID NO: 2,specific activities,[1],441.7 pmol PO4 min-1 mg-1
C1FL: NH2-terminally truncated MEK1 encoding amino acids 51-393 of SEQ ID NO: 2,specific activities,[1],773.3 pmol PO4 min-1 mg-1
B1,specific activity after Raf activation (32P incorporated into ERK),[3],WTsPR: 40.1
same,specific activities,[1],40.1 pmol PO4 min-1 mg-1
B2,specific activity after Raf activation (32P incorporated into ERK),[3],ClsPR: 35.9
same,specific activities,[1],35.9 pmol PO4 min-1 mg-1
B3,specific activity after Raf activation (32P incorporated into ERK),[3],C3sPR: 26.9
same,specific activities,[1],26.9 pmol PO4 min-1 mg-1
B4,specific activity after Raf activation (32P incorporated into ERK),[3],C2sPR: 24.1
same,specific activities,[1],24.1 pmol PO4 min-1 mg-1
